Experimental data: patent publication US20210238290A1 (DRAGONFLY THERAPEUTICS, published 2021)

B1: anti-P-cadherin mAb (TSP7 wt mAb) (antibody, V domains shown)
VH: QVQLQESGPELVKPGASVKMSCKASGYSFTAYNMHWVKQSHGKSLEWIGFIDPYSGIITYNQTFKGKATLTVDKSSSTAYMQLNSLTSEDSAVYYCARRGYYDGGFDYWGQGTTLTVSS
VL: DIQMTQTTSSLSASLGDRVTISCRASQDITNYLNWYQQKPDGTVKLLIYYTSRLHSGVPSRFSGSGSGTDYSLTISNLEQEDIATYFCQQDSKHPRTFGGGTKLEIK
notes: it was detected with an anti-human IgG secondary antibody; also called TSP7 mAb
B2: anti-P-cadherin mAb (D153 wt mAb) (antibody, V domains shown)
VH: EVQLVQSGAEVKKPGASVKVSCKASGYTFTSYGISWVRQAPGQGLEWMGWISAYNGNTNYAQKLQGRVTMTTDTSTSTAYMELRSLRSDDTAVYYCATIDTANAFGIWGQGTMVTVSS
VL: QSVLTQPPSVSAAPGQKVTISCSGSSSNIGNNYVSWYQQLPGTAPKLLIYDNNKRPSGIPDRFSGSKSGTSATLGITGLQTGDEADYYCGTWDSSLSGVVFGGGTKLTVL
notes: it was detected with an anti-human IgG secondary antibody; also called D153 mAb

Biological target: T1, human P-cadherin (CDH3) expressed on cancer cell lines HCT116, H1975 and CAL27 (human, UniProt P22223 108-829)
T1 construct: whole, on cells
Experiment: flow cytometry on H1975, HCT116 and CAL27 cells, MFI fold over background
Excerpt: Human P-cadherin (CDH3)-expressing cancer cell lines, HCT116, H1975 and CAL27, were used to assess tumor antigen binding of multi-specific binding proteins having a P-cadherin (CDH3) binding site comprising a heavy chain variable domain sequence identical to SEQ ID NO:196 and a light chain variable domain sequence identical to SEQ ID NO:200 (D153 DB), or a P-cadherin (CDH3) binding site comprising a heavy chain variable domain sequence identical to SEQ ID NO:188 and a light chain variable domain sequence identical to SEQ ID NO:192 (TSP7 DB). Multi-specific binding proteins or corresponding monoclonal antibodies (mAb) having the same P-cadherin (CDH3) binding site were diluted and incubated with the cells. Binding was detected using a fluorophore conjugated anti-human IgG secondary antibody. Cells were analyzed by flow cytometry and binding was expressed as mean fluorescence intensity (MFI) normalized to human recombinant IgG1 stained controls to obtain fold over background (FOB) values.

T1 sequence (P22223 108-829): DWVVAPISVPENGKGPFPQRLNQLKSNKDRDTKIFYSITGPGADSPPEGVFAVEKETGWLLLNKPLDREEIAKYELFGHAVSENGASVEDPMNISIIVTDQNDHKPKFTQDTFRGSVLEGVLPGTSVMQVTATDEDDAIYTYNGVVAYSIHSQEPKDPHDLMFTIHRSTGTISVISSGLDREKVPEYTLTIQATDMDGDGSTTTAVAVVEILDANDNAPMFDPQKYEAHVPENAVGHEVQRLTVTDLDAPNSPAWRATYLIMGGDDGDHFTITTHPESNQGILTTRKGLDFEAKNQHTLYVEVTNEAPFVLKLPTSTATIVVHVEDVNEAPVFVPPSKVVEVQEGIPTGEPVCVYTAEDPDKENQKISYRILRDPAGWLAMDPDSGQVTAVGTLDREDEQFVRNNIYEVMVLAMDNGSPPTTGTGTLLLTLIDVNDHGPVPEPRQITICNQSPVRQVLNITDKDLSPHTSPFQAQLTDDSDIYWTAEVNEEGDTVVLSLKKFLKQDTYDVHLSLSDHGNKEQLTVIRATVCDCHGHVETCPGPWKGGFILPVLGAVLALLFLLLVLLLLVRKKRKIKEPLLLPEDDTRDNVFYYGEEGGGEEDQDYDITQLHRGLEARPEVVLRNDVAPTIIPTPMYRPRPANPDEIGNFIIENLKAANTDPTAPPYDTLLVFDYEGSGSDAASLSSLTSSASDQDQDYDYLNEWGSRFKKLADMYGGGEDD

| Binder | binding result |
| --- | --- |
| B1 | binds |
| B2 | binds |
